Data from US20090275124A1 (DYAX, published 2009).

B1: 539C-M0021-E01 (Fab, V domains shown)
VH: EVQLLESGGGLVQPGGSLRLSCAASGFTFSVYPMIWVRQAPGKGLEWVSYISSSGGQTWYADSVKGRFTISRDNSKNTLYLQMNSLRAEDTATYYCARGDDYDSSGPDYWGQGTLVTVSS
VL: DIQMTQSPSSLSASEGDRITLTCRASQSISIYLNWYQQKPGRAPKLLMYAATTLQSGVPSRFSGSGSGTDFTLTISGLRPEDFATYYCQQSYDIPLTFGGGTKVEIKR
notes: It was tested as Fab on phage and as soluble Fab
B2: 539C-R0010-E06 (Fab, V domains shown)
VH: EVQLLESGGGLVQPGGSLRLSCAASGFTFSDYWMFWVRQAPGKGLEWVSGIGPSGGIISYADSVKGRFTISRDNSKNTLYLQMNSLRAEDTAVYYCAKYGDYVSGFDYWGQGTLVTVSS
VL: QSALTQPASVSGSPGQSITISCTGTSSDVGGYKLVSWYQQHPGKVPKLIISEVSYRPSGVSNRFSGSKSGNAASLTISGLQAEDEADYYCSSYTSTSTWVFGGGTKLTVL
notes: A Fab from the phage display library with a lambda light chain; Only the starts of the constant regions are printed
B3: 539C-R0010-C06 (Fab, V domains shown)
VH: EVQLLESGGGLVQPGGSLRLSCAASGFTFSSYNMAWVRQAPGKGLEWVSVIVPSGGLTGYADSVKGRFTISRDNSKNTLYLQMNSLRAEDTAVYYCARERGGFYSSGWYRYWFDPWGQGTLVTVSS
VL: DIQMTQSPSSLSASVGDRVTITCRASQNINTFLNWYQQKPGKAPKLLIYGASSLQSGVPSRFSGSGSGTDFTLTISSLQPEDFATYYCQQSSDALVYNFGQGTKLEIK
notes: A Fab from the phage display library with a kappa light chain; Only the starts of the constant regions are printed
B4: 539C-R0010-F06 (Fab, V domains shown)
VH: EVQLLESGGGLVQPGGSLRLSCAASGFTFSDYHMSWVRQAPGKGLEWVSGISSSGGETFYADSVKGRFTISRDNSKNTLYLQMNSLRAEDTAVYYCASGSHRDGYNLGYFDYWGQGTLVTVSS
VL: DIQMTQSPASLSASVGDRVTITCQASRDIGEYLNWYQQKAGKPPKLLISDATTLETGVPSRFSGTGSGTEFLFTISSVEPEDFATYYCQQYDDLTWISFGPGTRLDVK
notes: as for B3
B5: 539C-R0004-G04 (Fab, V domains shown)
VH: EVQLLESGGGLVQPGGSLRLSCAASGFTFSDYDMHWVRQAPGKGLEWVSGISPSGGWTWYADSVKGRFTISRDNSKNTLYLQMNSLRAEDTAVYYCARDWYSSGLDYWGQGTLVTVSS
VL: QYELTQPPSVSVAPGQTARIICGGNDIGSKGVHWYHQKAGQAPVLLVYDNTDRPSGIPERFSGSNSGNTAALTITRVEAGDEADYFCQVWDSTGEHAVFGGGTKLTVL
notes: A Fab from the phage display library with a lambda light chain; Only the starts of the constant regions are printed; The VL is built from the FR/CDR columns because the joined LV-AA print (r109-r111) reads ADYEC where LV-FR3 reads ADYFC
B6: 539C-R0010-D06 (Fab, V domains shown)
VH: EVQLLESGGGLVQPGGSLRLSCAASGFTFSDYSMYWVRQAPGKGLEWVSYISSSGGNTEYADSVKGRFTISRDNSKNTLYLQMNSLRAEDTAMYYCATTPSIWLGDLLENGPYWGQGTLVTVSS
VL: QYELTQPHSVSESPGKTVTISCTRSNGTIDNSFVQWYQQRPGSAPTTVIYEDTQRPSGVPDRFSGSIDSSSNSASLTISGLKTEDEADYYCQSYDSTNRGVFGGGTKLTVL
notes: A Fab from the phage display library with a lambda light chain; Only the starts of the constant regions are printed (GQPKAAP)
B7: 539C-R0010-C05 (Fab, V domains shown)
VH: EVQLLESGGGLVQPGGSLRLSCAASGFTFSGYGMGWVRQAPGKGLEWVSYIVPSGGATDYADSVKGRFTISRDNSKNTLYLQMNSLRAEDTAVYYCARAYYYDSSGFDIWGQGTMVTVSS
VL: DIQMTQSPSSLSASVGDRVTITCLPSQDISVYLNWYQQKPGEAPKLLISATSDLQSGVPSRFGGSGYGTDFSLTITSLQREDFATYYCQQSYSLPFTFGGGTRVEIK
notes: as for B3
B8: 539C-R0010-F05 (Fab, V domains shown)
VH: EVQLLESGGGLVQPGGSLRLSCAASGFTFSWYAMVWVRQAPGKGLEWVSGISPSGGLTSYADSVKGRFTISRDNSKNTLYLQMNSLRAEDTAVYYCARKQMSPDYYYGMDVWGQGTTVTVSS
VL: QSVLTQPPSVSVAPGQTATISCEGDNIGSKSVHWYQQRPGQAPVLVVYDDYDRPSGIPERFSGFNSGNTATLTIYRVEAGDEADFYCQVRDSRTEERVFGGGTKLTVL
notes: as for B2
B9: 539C-R0010-B06 (Fab, V domains shown)
VH: EVQLLESGGGLVQPGGSLRLSCAASGFTFSEYQMNWVRQAPGKGLEWVSSIYSSGGGTAYADSVKGRFTISRDNSKNTLYLQMNSLRAEDTAVYYCAKDQGDGYNYGVGLDYWGQGTLVTVSS
VL: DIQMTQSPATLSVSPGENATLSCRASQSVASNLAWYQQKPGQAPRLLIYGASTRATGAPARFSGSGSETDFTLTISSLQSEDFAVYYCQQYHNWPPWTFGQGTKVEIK
notes: A Fab from the phage display library with a kappa light chain; Only the starts of the constant regions are printed (RTVAAPS)
B10: 539C-M0016-E11 (Fab, V domains shown)
VH: EVQLLESGGGLVQPGGSLRLSCAASGFTFSFYVMDWVRQAPGKGLEWVSGIGPSGGSTDYADSVKGRFTISRDNSKNTLYLQMNSLRAEDTAVYYCTRIRYDSSGYPTDAFDIWGQGTMVTVSS
VL: DIQMTQSPATLSLSPGERATLSCRASQSVSSYLAWYQQKPGQAPRLLIYDASNRATGIPARFSGSGSGTDFTLTISSLEPEDFAVYYCQQRSNWPLTFGGGTKVEIKR
notes: It was tested as Fab on phage, as soluble Fab, and biotinylated in the ECL assay

What follows are binders tested against T1, DX-2400 (assay: phage display selection and ELISA screening).
T1 construct: Only the variable domains are printed (joined from rows r3-r12 and r17-r26); It was biotinylated for phage selection; also called DX-2400 IgG; fully human monoclonal anti-MMP-14 antibody
Text: Anti-idiotypic Fabs for DX-2400 were generated by phage selection and screenings using DX-2400 as a target. […] Forty nine were distinct as determined by DNA sequencing. These 49 unique clones were screened as phages and sFabs (soluble Fabs) in 5% pooled normal serum matrices (human, mouse, rat and cynomolgus monkey). Top 10 unique clones were ranked according to the following criteria: strong binding to DX-2400, weak binding to DX-2300, low-non specific binding to streptavidin and Fab control.

Row | Binder | binding result
1 | B1 | binds
2 | B2 | binds
3 | B3 | binds
4 | B4 | binds
5 | B5 | binds
6 | B6 | binds
7 | B7 | binds
8 | B8 | binds
9 | B9 | binds

Each binder was assayed against T1, DX-2400 (assay: phage ELISA).
Text: Three rounds of selection were done against biotinylated DX-2400 after depleting the library using biotinylated-DX-2300 IgG (control antibody that binds unrelated target) and biotinylated matched Vk Fab (371L-X002-A03) (isotype matched control) immobilized on streptavidin magnetic beads. […] Forty-nine unique phage clones which had distinct heavy chains were secondarily screened by phage ELISA and ranked for specific binding to DX-2400. Later 45 soluble Fabs were expressed, purified and screened for non-specific binding to 5% human, cyno, rat, and mouse serum antibodies by using Fab as capture reagent and detecting with alkaline phosphatase-conjugated mouse anti-human Fc gamma-specific antibody.

Row | Binder | binding result
10 | B10 | binds
